Data on 9 molecules can be found in patent US20220389118A1 (Chugai, published 2022).

The Kd is the constant that tells how readily two partners part at equilibrium. Low readings indicate a tighter complex, high ones a looser complex.

Test [1] concerns the target T1, human FcγRIa extracellular domain with C-terminal His tag (human, UniProt P12314 16-292).
T1 construct: extracellular domain; also called FcgRIa
Description: SPR (Biacore). In general terms: SPR reads the build-up and loss of mass on a sensor chip optically.

For test [2], the target named is T2, human FcγRIIb extracellular domain with C-terminal His tag (human, UniProt P31994 43-217).
T2 construct: extracellular domain; also called FcgRIIb
T2 sequence (looked up): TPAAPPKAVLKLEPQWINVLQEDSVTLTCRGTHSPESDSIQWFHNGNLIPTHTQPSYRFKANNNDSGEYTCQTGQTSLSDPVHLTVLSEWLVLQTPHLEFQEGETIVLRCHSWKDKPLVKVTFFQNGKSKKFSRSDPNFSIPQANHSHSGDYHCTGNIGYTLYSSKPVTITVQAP
Description: SPR (Biacore).

In test [3] the target is T3, human FcγRIIa type H extracellular domain with C-terminal His tag (human, UniProt P12318 34-217).
T3 construct: extracellular domain; also called FcγRIIaH; FcgRIIaH
T3 sequence (looked up): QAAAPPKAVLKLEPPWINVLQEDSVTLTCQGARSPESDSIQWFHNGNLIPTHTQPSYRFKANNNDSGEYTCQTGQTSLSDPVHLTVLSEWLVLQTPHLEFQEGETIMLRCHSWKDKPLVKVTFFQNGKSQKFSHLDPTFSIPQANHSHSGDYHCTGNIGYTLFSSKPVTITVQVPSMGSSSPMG
Description: SPR (Biacore).

Test [4] concerns the target T4, human FcγRIIIa type V extracellular domain with C-terminal His tag (human, UniProt P08637 17-208).
T4 construct: extracellular domain; also called FcγRIIIaV; FcgRIIIaV
The test can be described thus: SPR (Biacore).

The target in test [5] is T5, human FcγRIIa type H (allotype H131) extracellular domain with C-terminal His tag (human, UniProt P12318 34-217).
T5 construct: extracellular domain; also called FcγRIIaH; FcγRIIa H type; not shown: His tag at the C terminus
T5 sequence (looked up): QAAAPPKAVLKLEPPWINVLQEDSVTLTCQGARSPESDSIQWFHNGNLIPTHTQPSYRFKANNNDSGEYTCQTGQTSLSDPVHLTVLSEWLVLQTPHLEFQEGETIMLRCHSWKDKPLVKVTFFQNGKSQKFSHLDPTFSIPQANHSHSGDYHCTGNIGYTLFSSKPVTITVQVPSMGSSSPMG
The test can be described thus: SPR (Biacore), antibody captured, FcγR analyte.

T1 sequence (P12314 16-292): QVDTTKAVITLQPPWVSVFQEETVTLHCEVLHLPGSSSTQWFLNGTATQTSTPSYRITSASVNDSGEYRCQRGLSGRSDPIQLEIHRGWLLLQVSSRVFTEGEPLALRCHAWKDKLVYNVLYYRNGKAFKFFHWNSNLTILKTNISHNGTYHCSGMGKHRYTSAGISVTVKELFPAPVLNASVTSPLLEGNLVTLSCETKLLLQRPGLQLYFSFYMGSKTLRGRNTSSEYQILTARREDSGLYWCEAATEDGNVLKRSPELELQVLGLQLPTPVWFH
T4 sequence (P08637 17-208 F176V): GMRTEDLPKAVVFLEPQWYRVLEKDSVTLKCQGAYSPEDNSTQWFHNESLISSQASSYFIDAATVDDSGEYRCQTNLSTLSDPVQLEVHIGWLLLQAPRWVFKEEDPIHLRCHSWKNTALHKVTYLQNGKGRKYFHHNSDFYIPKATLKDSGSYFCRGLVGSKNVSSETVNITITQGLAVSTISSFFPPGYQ

B1: IL6R-2B261/IL6R-L (antibody, human IgG1, kappa)
heavy: QVQLQESGPGLVKPSETLSLTCAVSGHSISHDHAWSWVRQPPGEGLEWIGFISYSGITNYNPSLQGRVTISRDNSKNTLYLQMNSLRAEDTAVYYCARSLARTTAMDYWGEGTLVTVSSASTKGPSVFPLAPSSKSTSGGTAALGCLVKDYFPEPVTVSWNSGALTSGVHTFPAVLQSSGLYSLSSVVTVPSSSLGTQTYICNVNHKPSNTKVDKKVEPKSCDKTHTCPPCPAPDLLGGDSVFLFPPKPKDTLMISRTPEVTCVVVDVSHEDPEVKFNWYVDGVEVHNAKTKPREEQDNSTYRVVSVLTVLHQDWLNGKEYKCKVSNKALPAPIEKTISKAKGQPREPQVYTLPPSRDELTKNQVSLTCLVKGFYPSDIAVEWESNGQPENNYKTTPPVLDSDGSFFLYSKLTVDKSRWQQGNVFSCSVMHEALHNHYTQESLSLSP
light: not shown
notes: EU numbering; alterations on IL6R-B3; copies: 2 + 2
B1: the Kd in test [1] was 9 nM; in test [2], 1000 nM.

B2: IL6R-BP148/IL6R-L (antibody, human IgG1, kappa)
heavy: QVQLQESGPGLVKPSETLSLTCAVSGHSISHDHAWSWVRQPPGEGLEWIGFISYSGITNYNPSLQGRVTISRDNSKNTLYLQMNSLRAEDTAVYYCARSLARTTAMDYWGEGTLVTVSSASTKGPSVFPLAPSSKSTSGGTAALGCLVKDYFPEPVTVSWNSGALTSGVHTFPAVLQSSGLYSLSSVVTVPSSSLGTQTYICNVNHKPSNTKVDKKVEPKSCDKTHTCPPCPAPDYLGDDSVFLFPPKPKDTLMISRTPEVTCVVVDVSHEDPEVKFNWYVDGVEVHNAKTKPREEQYNSTYRVVSVLTVLHQDWLNGKEYKCKVSNAALPKPIEKTISKAKGQPREPQVYTLPPSRDELTKNQVSLTCLVKGFYPSDIAVEWESNGQPENNYKTTPPVLDSDGSFFLYSKLTVDKSRWQQGNVFSCSVMHEALHNHYTQESLSLSP
light: not shown
notes: as for B1
On to B2, for which the Kd in test [3] was 7000 nM; in test [4], 30000 nM.

B3: IL6R-BP151/IL6R-L (antibody, human IgG1, kappa)
heavy: QVQLQESGPGLVKPSETLSLTCAVSGHSISHDHAWSWVRQPPGEGLEWIGFISYSGITNYNPSLQGRVTISRDNSKNTLYLQMNSLRAEDTAVYYCARSLARTTAMDYWGEGTLVTVSSASTKGPSVFPLAPSSKSTSGGTAALGCLVKDYFPEPVTVSWNSGALTSGVHTFPAVLQSSGLYSLSSVVTVPSSSLGTQTYICNVNHKPSNTKVDKKVEPKSCDKTHTCPPCPAPDYLGDDSVFLFPPKPKDTLMISRTPEVTCVVVDVSHEDPEVKFNWYVDGVEVHNAKTKPREEQYNSTYRVVSVLTVLHQDWLNGKEYKCKVSNAALPRPIEKTISKAKGQPREPQVYTLPPSRDELTKNQVSLTCLVKGFYPSDIAVEWESNGQPENNYKTTPPVLDSDGSFFLYSKLTVDKSRWQQGNVFSCSVMHEALHNHYTQESLSLSP
light: not shown
notes: as for B1
B3 came in with a Kd in test [2] of 40 nM.

B4: IL6R-BP234/IL6R-L (antibody, human IgG1, kappa)
heavy: QVQLQESGPGLVKPSETLSLTCAVSGHSISHDHAWSWVRQPPGEGLEWIGFISYSGITNYNPSLQGRVTISRDNSKNTLYLQMNSLRAEDTAVYYCARSLARTTAMDYWGEGTLVTVSSASTKGPSVFPLAPSSKSTSGGTAALGCLVKDYFPEPVTVSWNSGALTSGVHTFPAVLQSSGLYSLSSVVTVPSSSLGTQTYICNVNHKPSNTKVDKKVEPKSCDKTHTCPPCPAPDYLGDDSVFLFPPKPKDTLMISRTPEVTCVVVDVQDEDGEVKFNWYVDGVEVHNAKTKPREEQDNSTYRVVSVLTVLHQDWLNGKEYKCKVSNDALPKPIEKTISKAKGQPREPQVYTLPPSRDELTKNQVSLTCLVKGFYPSDIAVEWESNGQPENNYKTTPPVLDSDGSFFLYSKLTVDKSRWQQGNVFSCSVMHEALHNHYTQESLSLSP
light: not shown
notes: copies: 2 + 2
B4: the Kd in test [5] is 20000 nM.

B5: IL6R-BP238/IL6R-L (antibody, human IgG1, kappa)
heavy: QVQLQESGPGLVKPSETLSLTCAVSGHSISHDHAWSWVRQPPGEGLEWIGFISYSGITNYNPSLQGRVTISRDNSKNTLYLQMNSLRAEDTAVYYCARSLARTTAMDYWGEGTLVTVSSASTKGPSVFPLAPSSKSTSGGTAALGCLVKDYFPEPVTVSWNSGALTSGVHTFPAVLQSSGLYSLSSVVTVPSSSLGTQTYICNVNHKPSNTKVDKKVEPKSCDKTHTCPPCPAPDYLGDDSVFLFPPKPKDTLMISRTPEVTCVVVDVSDEDGEVKFNWYVDGVEVHNAKTKPREEQDNSTYRVVSVLTVLHQDWLNGKEYKCKVSNAALPRPIEKTISKAKGQPREPQVYTLPPSRDELTKNQVSLTCLVKGFYPSDIAVEWESNGQPENNYKTTPPVLDSDGSFFLYSKLTVDKSRWQQGNVFSCSVMHEALHNHYTQESLSLSP
light: not shown
notes: copies: 2 + 2
Molecule B5 gave a Kd in test [5] of 7000 nM.

B6: IL6R-BP182/IL6R-L (antibody, human IgG1, kappa)
heavy: QVQLQESGPGLVKPSETLSLTCAVSGHSISHDHAWSWVRQPPGEGLEWIGFISYSGITNYNPSLQGRVTISRDNSKNTLYLQMNSLRAEDTAVYYCARSLARTTAMDYWGEGTLVTVSSASTKGPSVFPLAPSSKSTSGGTAALGCLVKDYFPEPVTVSWNSGALTSGVHTFPAVLQSSGLYSLSSVVTVPSSSLGTQTYICNVNHKPSNTKVDKKVEPKSCDKTHTCPPCPAPDLLGGDSVFLFPPKPKDTLMISRTPEVTCVVVDVSHEDGEVKFNWYVDGVEVHNAKTKPREEQDNSTYRVVSVLTVLHQDWLNGKEYKCKVSNKALPKPIEKTISKAKGQPREPQVYTLPPSRDELTKNQVSLTCLVKGFYPSDIAVEWESNGQPENNYKTTPPVLDSDGSFFLYSKLTVDKSRWQQGNVFSCSVMHEALHNHYTQESLSLSP
light: not shown
notes: as for B1
Regarding B6, in test [1], the Kd is 10 nM.

B7: IL6R-BP180/IL6R-L (antibody, human IgG1, kappa)
heavy: QVQLQESGPGLVKPSETLSLTCAVSGHSISHDHAWSWVRQPPGEGLEWIGFISYSGITNYNPSLQGRVTISRDNSKNTLYLQMNSLRAEDTAVYYCARSLARTTAMDYWGEGTLVTVSSASTKGPSVFPLAPSSKSTSGGTAALGCLVKDYFPEPVTVSWNSGALTSGVHTFPAVLQSSGLYSLSSVVTVPSSSLGTQTYICNVNHKPSNTKVDKKVEPKSCDKTHTCPPCPAPELLGDDSVFLFPPKPKDTLMISRTPEVTCVVVDVSHEDGEVKFNWYVDGVEVHNAKTKPREEQYNSTYRVVSVLTVLHQDWLNGKEYKCKVSNKALPKPIEKTISKAKGQPREPQVYTLPPSRDELTKNQVSLTCLVKGFYPSDIAVEWESNGQPENNYKTTPPVLDSDGSFFLYSKLTVDKSRWQQGNVFSCSVMHEALHNHYTQESLSLSP
light: not shown
notes: EU numbering; alterations on IL6R-B3; also called IL6R-BF180/IL6R-L; copies: 2 + 2
Turning to B7, the Kd worked out at 98 nM in test [1] and 70000 nM in test [4].

B8: IL6R-BP084/IL6R-L (antibody, human IgG1, kappa)
heavy: QVQLQESGPGLVKPSETLSLTCAVSGHSISHDHAWSWVRQPPGEGLEWIGFISYSGITNYNPSLQGRVTISRDNSKNTLYLQMNSLRAEDTAVYYCARSLARTTAMDYWGEGTLVTVSSASTKGPSVFPLAPSSKSTSGGTAALGCLVKDYFPEPVTVSWNSGALTSGVHTFPAVLQSSGLYSLSSVVTVPSSSLGTQTYICNVNHKPSNTKVDKKVEPKSCDKTHTCPPCPAPELLGGDSVFLFPPKPKDTLMISRTPEVTCVVVDVSHEDPEVKFNWYVDGVEVHNAKTKPREEQYNSTYRVVSVLTVLHQDWLNGKEYKCKMSNKALPKPIEKTISKAKGQPREPQVYTLPPSRDELTKNQVSLTCLVKGFYPSDIAVEWESNGQPENNYKTTPPVLDSDGSFFLYSKLTVDKSRWQQGNVFSCSVMHEALHNHYTQESLSLSP
light: not shown
notes: as for B1
On to B8, for which the Kd was 7 nM in test [1] and 500 nM in test [2].

B9: IL6R-BP130/IL6R-L (antibody, human IgG1, kappa)
heavy: QVQLQESGPGLVKPSETLSLTCAVSGHSISHDHAWSWVRQPPGEGLEWIGFISYSGITNYNPSLQGRVTISRDNSKNTLYLQMNSLRAEDTAVYYCARSLARTTAMDYWGEGTLVTVSSASTKGPSVFPLAPSSKSTSGGTAALGCLVKDYFPEPVTVSWNSGALTSGVHTFPAVLQSSGLYSLSSVVTVPSSSLGTQTYICNVNHKPSNTKVDKKVEPKSCDKTHTCPPCPAPDLLGGDSVFLFPPKPKDTLMISRTPEVTCVVVDVSHEDPEVKFNWYVDGVEVHNAKTKPREEQYNSTYRVVSVLTVLHQDWLNGKEYKCKMSNKALPKPIEKTISKAKGQPREPQVYTLPPSRDELTKNQVSLTCLVKGFYPSDIAVEWESNGQPENNYKTTPPVLDSDGSFFLYSKLTVDKSRWQQGNVFSCSVMHEALHNHYTQESLSLSP
light: not shown
notes: as for B1
In test [2], B9 gave an equilibrium dissociation constant (Kd) of 300 nM.
